Source: publication PMC11117311

B1: Keratin 18 (K18): S30A (protein)
parent chain: MSFTTRSTFSTNYRSLGSVQAPSYGARPVSSAASVYAGAGGSGSRISVSRSTSFRGGMGSGGLATGIAGGLAGMGGIQNEKETMQSLNDRLASYLDRVRSLETENRRLESKIREHLEKKGPQVRDWSHYFKIIEDLRAQIFANTVDNARIVLQIDNARLAADDFRVKYETELAMRQSVENDIHGLRKVIDDTNITRLQLETEIEALKEELLFMKKNHEEEVKGLQAQIASSGLTVEVDAPKSQDLAKIMADIRAQYDELARKNREELDKYWSQQIEESTTVVTTQSAEVGAAETTLTELRRTVQSLEIDLDSMRNLKASLENSLREVEARYALQMEQLNGILLHLESELAQTRAEGQRQAQEYEALLNIKVKLEAEIATYRRLLEDGEDFNLGDALDSSNSMQTIQKTTTRRIVDGKVVSETNDTKVLRH
B2: Keratin 18 (K18): 5S (Ac45SGlcNAc) (protein)
parent chain: B1 parent chain

Assays:
[1] = CHX chase 8 h, FLAG-K18 remaining by blot; conditions: glycan lost; control: FLAG-K18-WT
[2] = HA-ubiquitin, MG-132, anti-FLAG IP, anti-HA blot; conditions: glycan lost; control: FLAG-K18-WT
[3] = immunofluorescence, RBE cells; conditions: glycan lost; control: FLAG-K18WT
[4] = [U-13C6] glucose tracing, LC-MS/MS, HuCCT1; conditions: glycan lost; control: shK18 + WT
[5] = CHX chase up to 8 h, K18 remaining by blot; conditions: glycan lost; control: DMSO

Protein	degradation_or_half_life [1]	other: ubiquitination [2]	other: filament organisation [3]	other: TCA cycle metabolite levels [4]	degradation_or_half_life [5]
B1	decreases	increases	changes	changes	
B2					decreases
